The source of these data is patent publication US20140017242A1, “ANTI-BRADYKININ B2 RECEPTOR (BKB2R) MONOCLONAL ANTIBODY” (Diamedica, Inc., priority 2010, published 2014).

Where no end group is shown, it is not given here.

The test system of assay [1] is ZDF fa/fa rats. The experiment in a line: 21-day ZDF fa/fa study: urinary glucose (glycosuria). As to conditions: 10 mg/kg p.o. 1×/daily, day 14. It is filed as in vivo, rat.
Assay [2] deals with ZDF fa/fa rats. Briefly: 21-day ZDF fa/fa study: serum total cholesterol and triglyceride. Format: in vivo, rat. To be noted: 10 mg/kg p.o. 1×/daily, day 21. On the procedure:
(§1) Animals. Male ZDF fa/fa rats were obtained from CRL (Kingston, N.Y.). Upon arrival, rats were seven weeks of age. The rats were housed individually per cage in a room with a photo cycle of 12 hours of light and 12 hours of dark and an ambient temperature of 70-72° F. and fed on regular rodent diet and water ad libitum. At the age of eleven weeks, rats were divided into six groups (Table 5) of eight rats per group based on fasting blood glucose levels. A sub-group of four rats per group was maintained in parallel to the main groups and was dosed similarly for twenty-one days for a hyperinsulinemic-euglycemic clamp study. […]
(§2) An oral glucose tolerance test (OGTT) was performed on Day 0, 7, 14 and 21 for each group of the study. Plasma samples were collected at each time point during OGTT to also measure insulin levels. Body weight, food and water intake were measured twice a week. Blood pressure and heart rates were monitored on Day 0, 7, 14 and 21 using a non-invasive tail cuff method (with five readings per rat taken and then averaged). Fasting serum samples were collected on Day 0, 7, 14 and 21 before OGTT for determination of triglyceride and total cholesterol level. Urine samples were collected on Day 7 and 14 for the determination of glycosuria. Glycated (Glycosylated) hemoglobin (HbA1c) was measured at the end of the study. Assay kits for these studies were as presented in Table 6, and were used according to the suppliers' instructions.
(§3) The mean change in fasting blood glucose (mg/dL), serum cholesterol (mg/dL) and systolic blood pressure (mm Hg) from baseline (Day 0) to Day 21 was compared between the high-dose (5F12G1, 0.2 mg/kg) and negative control (MG2b-57, 0.2 mg/kg) groups using an analysis of covariance to adjust for baseline levels. The mean HbA1c percentage in high-dose (5F12G1, 0.2 mg/kg) rats was compared to the mean HbA1c percentage for negative control (MG2b-57, 0.2 mg/kg) rats using an unequal-variance, independent two-sample t-test. A significance level of a=0.05 was used for all tests, and all analyses were conducted using SAS statistical software (vs. 9.2, Cary, N.C., U.S.A.).

Assay [3] deals with ZDF fa/fa rats. Briefly: 21-day ZDF fa/fa study: glycated hemoglobin HbA1c. As to conditions: 10 mg/kg p.o. 1×/daily, day 21. Format: in vivo, rat. On the procedure:
as §1, §2
The mean change in fasting blood glucose (mg/dL), serum cholesterol (mg/dL) and systolic blood pressure (mm Hg) from baseline ([…]) and negative control (MG2b-57, 0.2 mg/kg) groups using an analysis of covariance to adjust for baseline levels. […] A significance level of a=0.05 was used for all tests, and all analyses were conducted using SAS statistical software (vs. 9.2, Cary, N.C., U.S.A.).

In assay [4] the test system is ZDF fa/fa rats. The experiment in a line: 21-day ZDF fa/fa study: fasting blood glucose. It is filed as in vivo, rat. As to conditions: 10 mg/kg p.o. 1×/daily, day 21; baseline 116.5+/−25.8. The procedure:
as §1, §2
Fasting blood glucose levels were measured on Day 0, 7, 14 and 21.
as §3

Assay [5] concerns ZDF fa/fa rats. The experiment in a line: 21-day ZDF fa/fa study: oral glucose tolerance test (blood glucose, plasma insulin). Format: in vivo, rat. To be noted: 10 mg/kg p.o. 1×/daily, day 21. The procedure: as §1, §2
OGTTs were performed on Day 0, 7, 14 and Day 21. Rats were fasted overnight and fasted blood glucose levels were measured (t=0 min), and then each rat was given a single 1.5 ml dose of glucose solution (2 g/kg body weight of D-(+)-glucose (G7528, Sigma) solubilized in deionized water) administered by oral gavage. […] At each time point of an OGGT approximately 50-60 μl of blood were collected and processed for plasma to measure insulin levels.
Plasma Collection. On days 0, 7, 14 and 21 during an OGTT test, blood samples were collected from the rats at each time point (0, 15, 30, 60, 90 and 120 minutes) into tubes containing lithium heparin (BD Biosciences, USA) by tail nip and kept on ice. The samples were then centrifuged at 4° C. for plasma separation and the plasma supernatants were transferred into 0.5 ml Eppendorf™ tubes by pipette and stored at −80° C. for the analysis of insulin levels.

Assay [6] concerns the target T1, human BKB2R-derived epitope peptide (SEQ ID NO:73), PEG-biotin (human, also: PEG-biotin, site not given here).
T1 construct: also called immunogenic human BKB2R peptide fragment
T1 peptide: KEYSDEGHNVTAC
Briefly: BLI (Octet), peptide-PEG-biotin on streptavidin sensor, antibody 250 nM. The procedure: (§4) For the Octet study, antibodies were analyzed by kinetic titration of the antibodies. Antibodies were prepared in kinetic buffer (0.001 M phosphate buffered saline (NaCl 0.0138 M; KCl-0.00027 M); pH 7.4, at 25° C., 0.1 mg/ml BSA, 0.002% Tween and 0.005% Sodium Azide) followed by 1:2 serial dilutions.
(§5) Sensor Prep: Streptavidin biosensors (FortéBio Inc, Menlo Park, Calif.) were coated by incubation in a solution containing a peptide ([…]-PEG-biotin) (Biosyn, Lewisville, Tex.) at 50 μg/ml (300 seconds/1000 rpm shaking). 96 well half-volume plates were used for testing. 90 μl of sample was plated per well. Sensors were allowed to equilibrate to baseline in kinetic buffer (60 seconds/1000 rpm). The sensors were then placed into the various antibody dilutions to allow binding (association) to the probe for 500 seconds/1000 rpm, and measurements were taken. The sensors were then moved into kinetic buffer without antibody for dissociation (500 seconds/1000 rpm), and measurements were taken. Octet system software calculated kinetic constants for on rate/off rate/affinity.
(§6) For test humanized monoclonal antibodies, the highest concentration used was 500 nM followed by 1:2 dilutions. Each concentration was tested twice. The HC and LC represented the mouse original 5F12G1 VH and VL sequences.

The target in assay [7] is T1, human BKB2R-derived epitope peptide …. Briefly: BLI (Octet), peptide-PEG-biotin on streptavidin sensor, antibody 500 nM. On the procedure: as §4, §5, §6
A general note: BLI is a label-free optical method that tracks binding on a fibre tip over time.

For `N[C@@H](CC(=O)N1CCn2c(nnc2C(F)(F)F)C1)Cc1cc(F)c(F)cc1F` [sitagliptin, reference compound], the urine glucose level entry in the assay with ZDF fa/fa rats [1] is “elevated urine glucose”. In addition, the serum cholesterol in the assay with ZDF fa/fa rats [2] worked out at 170 ± 14 mg/dL. The “percent glycosylated hemoglobin A1c (HbA1c)” value with ZDF fa/fa rats [3] is on record as 8.8+/−0.4%. Besides, in the assay on ZDF fa/fa rats [4], the “fasting blood glucose level” value was determined as 247 ± 14 mg/dL. In the assay with ZDF fa/fa rats [5], the “AUC of blood glucose during OGTT” value was 53765.75 ± 2281.45 mg/dL (min), the “blood glucose level at 30 minutes of the OGTT” value was determined as 488 mg/dL, the “blood glucose level at the start of the OGTT” value was determined as 228 mg/dL and the fasting insulin level was 10 ± 3.5 ng/mL. In addition, in the assay on ZDF fa/fa rats [5], the “insulin level at 15 minutes of the OGTT” value came to 15 ± 4 ng/mL.

B1: humanized anti-BKB2R antibody L2/H1 (antibody, human IgG2, kappa, V domains shown)
VH: EVQLVESGGGLVQPGGSLRLSCAASGFTFSDYWMSWVRQAPGKGLEWVAEIRLKSDNYATHYAESVKGRFTISRDNAKNSLYLQMNSLRAEDTAVYYCTRDYYAMEYWGQGTLVTVSS
VL: DIVMTQSPLSLPVTPGEPASISCRSSQTIVHSNGKTYLEWYLQKPGQSPQLLIYKVSNRFSGVPDRFSGSGSGTEFTLKISRVEAEDVGVYYCFQASHVPYTFGQGTKLEIKR
For orientation: Kd means a measure of binding affinity in units of concentration. A lower Kd goes with a tighter complex. Usually koff stands for the rate constant with which the complex falls apart. A high value points to fast dissociation. What is called kon is a measure of how fast the partners come together. Read a high kon as fast association. Take B1: in assay [6], the Kd was 20.3 nM, the “Max Response” value was determined as 0.18, the dissociation rate constant (koff) amounted to 0.00438 s⁻¹ and the kon came to 216000 M⁻¹ s⁻¹. Besides, in assay [7], binding was characterised by a dissociation constant (Kd) of 4.19 nM, the “Max Response” value worked out at 0.172, the off-rate (koff) was found to be 0.00507 s⁻¹ and the on-rate (kon) stood at 1.21e+06 M⁻¹ s⁻¹.

B2: chimeric/humanized anti-BKB2R antibody L1/HC (antibody, human IgG2, V domains shown)
VH: EVKLEESGGGLVQPGGSMKLSCVVSGFTFSDYWMSWVRHSPEMGLEWVAEIRLKSDNYATHYAESVKGRFTISRDDSKSRLYLQINSLRGEDTGIYYCTRDYYAMEYWGQGTSVTVSS
VL: DIVMTQSPLSLPVTPGEPASISCRSSQTIVHSNGKTYLEWYLQKPGQSPQLLIYKVSNRFSGVPDRFSGSGSGTDFTLKISRVEAEDVGVYYCFQASHVPYTFGQGTKLEIKR
notes: not shown: human IgG2 constant region
Turning to B2, in assay [6], binding was put at a Kd of 3040 nM, the “Max Response” value is 0.148, the off-rate constant (koff) turned out to be 0.728 s⁻¹ and the kon was 239000 M⁻¹ s⁻¹. Further, in assay [7], the affinity, expressed as Kd, was 3980 nM; the “Max Response” value came to 0.194; the koff worked out at 2.16 s⁻¹; the association rate constant (kon) is 543000 M⁻¹ s⁻¹.

B3: chimeric/humanized anti-BKB2R antibody L2/HC (antibody, human IgG2, V domains shown)
VH: EVKLEESGGGLVQPGGSMKLSCVVSGFTFSDYWMSWVRHSPEMGLEWVAEIRLKSDNYATHYAESVKGRFTISRDDSKSRLYLQINSLRGEDTGIYYCTRDYYAMEYWGQGTSVTVSS
VL: DIVMTQSPLSLPVTPGEPASISCRSSQTIVHSNGKTYLEWYLQKPGQSPQLLIYKVSNRFSGVPDRFSGSGSGTEFTLKISRVEAEDVGVYYCFQASHVPYTFGQGTKLEIKR
notes: as for B2
For the molecule B3, in assay [6], the equilibrium dissociation constant (Kd) was found to be 337 nM, the “Max Response” value is 0.204, the koff was 0.732 s⁻¹ and the association rate constant (kon) stood at 2.17e+06 M⁻¹ s⁻¹. Also, in assay [7], the Kd turned out to be 4530 nM, the “Max Response” value was found to be 0.143, the dissociation rate constant (koff) was found to be 0.655 s⁻¹ and the on-rate (kon) came out at 145000 M⁻¹ s⁻¹.

B4: humanized anti-BKB2R antibody L2/H2 (antibody, human IgG2, kappa, V domains shown)
VH: EVQLVESGGGLVQPGGSLRLSCVASGFTFSDYWMSWVRQAPGKGLEWVAEIRLKSDNYATHYAESVKGRFTISRDDAKNSLYLQMNSLRAEDTAVYYCTRDYYAMEYWGQGTLVTVSS
VL: DIVMTQSPLSLPVTPGEPASISCRSSQTIVHSNGKTYLEWYLQKPGQSPQLLIYKVSNRFSGVPDRFSGSGSGTEFTLKISRVEAEDVGVYYCFQASHVPYTFGQGTKLEIKR
notes: also called H2/L2
Consider B4, for which, in assay [6], the affinity, expressed as Kd, was 20.4 nM; the “Max Response” value was determined as 0.171; the dissociation rate constant (koff) worked out at 0.0359 s⁻¹; the kon was determined as 1.76e+06 M⁻¹ s⁻¹. In assay [7], the affinity, expressed as Kd, was 22.5 nM; the “Max Response” value is 0.171; the dissociation rate constant (koff) was 0.0223 s⁻¹; the kon came to 992000 M⁻¹ s⁻¹.
